In patent publication US12508311B2, “Fusion protein, and preparation method and use thereof” (SUN YAT-SEN UNIVERSITY, priority 2021, dated 2025):
No end group written: not given here.

Assays:
[1] = test system: normal human intestinal epithelial cells FHC; assay: Effect of gefitinib on normal cells (FHC control in CCK-8 / clone formation); format: cell-based; conditions: gefitinib 4 μM
From the text: • (1) The colorectal cancer cells HT29 (KRas wt) and HCT116 (KRas G13D) in the logarithmic growth phase and the normal human intestinal epithelial cells FHC were digested with pancreatin and then prepared into a single cell suspension, and the cells were evenly inoculated in a 12-well plate by 500 cells per well. […] Cell culture solution was replaced every other 1-2 days, and the culture was stopped until cell clones (more than 50 cells were considered as one clone) were seen under a light microscope. • (3) After the supernatant of each group was discarded, the cells were washed twice with the PBS buffer solution, and dried in air. A proper amount of methanol stationary liquid was added into each well for cell fixation for 15 minutes, and residual stationary liquid in the well was washed off with PBS solution, and dried in air. A proper amount of crystal violet staining solution was added into each well for cell staining for 15 minutes, and residual staining solution in the well was washed off with PBS solution, and dried in air. The cell clones seen in the auxiliary wells of each group were counted under an inverted microscope and the number of the clones was calculated. • (4) Statistical analysis was carried out by using GraphPad Prism8 software, and one way anova was used to compare means of multiple groups. The difference was statistically significant when P<0.05.

[2] = test system: tumors derived from the KRas wild-type cells HT29; assay: In vivo Cy5 imaging of tumor targeting, HT29 tumors; design: species or system mice; conditions: tail vein 60 μM, 100 μL, 2.5 hours, compared with Cy5 single molecule
From the text: (§1) • (1) 10 female Balb/c nude mice aged 4 weeks to 5 weeks (Guangdong Laboratory Animal Center) were purchased, and then 500,000 HT29cells and 500,000 HCT116 cells were subcutaneously injected into left and right sides of the mice respectively. One week later, the mice were divided into two groups, with five mice in each group, which were the experimental group and the control group respectively. Raising and experiment of the mice were both carried out in the Laboratory Animal Center of Sun Yat-sen University, and all the operations were in accordance with the management method of laboratory animals of Sun Yat-sen University and complied with the animal ethical rules. • (2) The TKD-Cy5 molecule and the Cy5 single molecule constructed above were injected into the mice by tail vein at a concentration of 60 μM and a volume of 100 μL, wherein the TKD-Cy5 injection group was the experimental group and the Cy5 single molecule injection group was the control group. • (3) After 2.5 hours of tail vein injection, the mice were anesthetized with isoflurane. Cy5 imaging detection was conducted by using IVIS Lumina (PerkinElmer), with a fluorescence detection form of fluorescence. • (4) Experimental results were shown in FIG. 15.

[3] = In vivo Cy5 imaging, other tissues and organs; design: species or system mice; conditions: tail vein 60 μM, 100 μL; 2.5 hours
From the text: as §1

[4] = test system: tumors derived from the KRas mutant-type HCT116 cells; assay: In vivo Cy5 imaging of tumor targeting, HCT116 tumors; design: species or system mice; conditions: tail vein 60 μM, 100 μL, 2.5 hours, compared with Cy5 single molecule
From the text: as §1

Molecule	toxic and side effects on normal cells [1]	aggregation in tumors (Cy5 imaging) [2]	targeting of other tissues and organs (Cy5 imaging) [3]	aggregation in tumors (Cy5 imaging) [4]
COc1cc2ncnc(Nc3ccc(F)c(Cl)c3)c2cc1OCCCN1CCOCC1 [gefitinib]	could not cause toxic and side effects on normal cells	–	–	–
TKD-Cy5: TKD molecules labeled with fluorescent dye Cy5 to form TKD-Cy5 covalent conjugates (TKDNNLLGRFELSG; also: Cy5 dye conjugate, site not given here; UniProt P0DMV8 450-463, looked up, fragment)	–	could aggregate in tumors	except bladder retention caused by metabolism in vivo as in the control group, TKD-Cy5 could not target other tissues and organs of the mice	could aggregate in tumors
